What was measured:
[1] = molecular target: T1, human BTN2A1, expressed on HEK293 cells (human, UniProt Q7KYR7 29-527); assay: Retrogenix cell microarray, fixed HEK293 cells
T1 construct: also called NM_007049
T1 sequence: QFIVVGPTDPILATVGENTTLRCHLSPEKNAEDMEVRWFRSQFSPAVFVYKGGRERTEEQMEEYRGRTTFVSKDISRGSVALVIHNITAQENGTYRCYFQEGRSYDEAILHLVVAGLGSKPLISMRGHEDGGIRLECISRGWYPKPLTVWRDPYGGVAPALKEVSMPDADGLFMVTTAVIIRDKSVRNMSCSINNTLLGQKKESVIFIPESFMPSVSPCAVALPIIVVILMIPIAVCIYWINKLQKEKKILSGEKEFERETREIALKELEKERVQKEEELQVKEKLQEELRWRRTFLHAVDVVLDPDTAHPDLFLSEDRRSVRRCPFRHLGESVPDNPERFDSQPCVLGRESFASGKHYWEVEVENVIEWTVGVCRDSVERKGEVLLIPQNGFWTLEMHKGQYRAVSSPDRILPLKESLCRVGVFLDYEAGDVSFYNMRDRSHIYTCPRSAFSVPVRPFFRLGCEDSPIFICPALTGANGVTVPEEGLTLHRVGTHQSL
Method: (§1) Human cell membrane receptor proteome arrays were performed at Retrogenix Ltd. Primary screens: 2 μg/ml of each antibody was screened for binding against fixed HEK293 cells/slides expressing 5528 human plasma membrane and tethered secreted proteins individually. […] Antibody binding was detected using AF647 fluorescent secondary anti-human IgG1 antibody. Primary hits (duplicate spots) were identified by analysing fluorescence (AF647 and ZsGreen1) on ImageQuant. Confirmation/specificity screens: Expression vectors encoding ZsGreen1 only, or ZsGreen1 and CD20, PD1, BTN2A1, or LSAMP were transfected into human HEK293 cells. […] Cells were washed, and incubated with the same AF647 anti-human IgG Fc detection antibody as used in the cell microarray screens. Cells were again washed, and analysed by flow cytometry using an Accuri flow cytometer (BD). A 7AAD live/dead dye was used to exclude dead cells, and ZsGreen1-positive cells (i.e. transfected cells) were selected for analyses.

[2] = molecular target: T2, human LSAMP, expressed on HEK293 cells (human, UniProt Q13449 29-315); assay: flow cytometry on live transfected HEK293 cells
T2 construct: also called BC033803
T2 sequence: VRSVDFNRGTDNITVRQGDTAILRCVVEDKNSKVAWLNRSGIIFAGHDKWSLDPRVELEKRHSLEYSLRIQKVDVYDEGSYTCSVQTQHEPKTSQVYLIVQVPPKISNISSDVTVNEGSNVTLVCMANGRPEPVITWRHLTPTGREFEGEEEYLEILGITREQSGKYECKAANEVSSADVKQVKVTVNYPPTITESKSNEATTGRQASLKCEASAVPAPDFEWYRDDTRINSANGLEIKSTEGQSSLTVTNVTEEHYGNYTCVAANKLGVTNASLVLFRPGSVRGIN
Method: (§2) FIG. 11. […] Analyses of binding specificity were performed on HEK293 cells transiently transfected with plasmids encoding either human PD1, human BTN2A1, human LSAMP, human CD20 or ZS green marker only. Each antibody was used in staining at […] concentration and histograms are indicated per antibody in this figure.
as §1

[3] = molecular target: T3, human CD20, expressed on HEK293 cells (human, UniProt P11836 1-297); assay: flow cytometry on live transfected HEK293 cells
T3 construct: whole, on cells
T3 sequence (looked up): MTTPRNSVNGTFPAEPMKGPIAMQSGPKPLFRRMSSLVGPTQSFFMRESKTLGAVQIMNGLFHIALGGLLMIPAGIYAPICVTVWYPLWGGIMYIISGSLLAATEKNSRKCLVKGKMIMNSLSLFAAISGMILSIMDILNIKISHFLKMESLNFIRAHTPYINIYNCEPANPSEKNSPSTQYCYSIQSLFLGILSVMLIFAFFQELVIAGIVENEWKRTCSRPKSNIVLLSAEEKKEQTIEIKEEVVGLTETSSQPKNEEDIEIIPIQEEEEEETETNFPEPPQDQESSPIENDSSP
Method: as §2, §1

[4] = molecular target: T1, human BTN2A1, expressed on HEK293 cells; assay: flow cytometry on transfected HEK293 cells, 2 ug/ml IgG
Method: as §2, §1

[5] = molecular target: T2, human LSAMP, expressed on HEK293 cells; assay: as above
Method: as §2, §1

[6] = molecular target: T3, human CD20, expressed on HEK293 cells; assay: as above
Method: as §2, §1

[7] = molecular target: T4, human PD1, membrane-expressed on transfected cells (CHO-K1 stable line, HEK293 transfectants, PD1 effector … (human, UniProt Q15116 25-288)); assay: Retrogenix cell microarray, fixed HEK293 cells, 2 ug/ml IgG
T4 construct: also called PD1 (PDCD1) NM_005018; membrane-presented human PD1
T4 sequence (Q15116 25-288 limits assumed): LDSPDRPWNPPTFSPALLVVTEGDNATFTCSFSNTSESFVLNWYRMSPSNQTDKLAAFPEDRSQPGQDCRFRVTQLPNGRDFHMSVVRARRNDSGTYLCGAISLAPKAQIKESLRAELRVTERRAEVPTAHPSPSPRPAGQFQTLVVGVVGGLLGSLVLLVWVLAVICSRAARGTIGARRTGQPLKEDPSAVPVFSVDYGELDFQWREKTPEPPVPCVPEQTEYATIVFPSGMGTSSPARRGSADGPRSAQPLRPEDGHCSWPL

[8] = molecular target: T5, cynomolgus monkey PD1, membrane-expressed on CHO-K1 stable cell line (cynomolgus monkey, UniProt Q15116 25-288 (human entry)); assay: flow cytometry on CHO cells stably transfected with cyno PD1 (reference antibody)
T5 construct: Genscript cell line M00572; also called membrane-presented cyno PD1
T5 chain: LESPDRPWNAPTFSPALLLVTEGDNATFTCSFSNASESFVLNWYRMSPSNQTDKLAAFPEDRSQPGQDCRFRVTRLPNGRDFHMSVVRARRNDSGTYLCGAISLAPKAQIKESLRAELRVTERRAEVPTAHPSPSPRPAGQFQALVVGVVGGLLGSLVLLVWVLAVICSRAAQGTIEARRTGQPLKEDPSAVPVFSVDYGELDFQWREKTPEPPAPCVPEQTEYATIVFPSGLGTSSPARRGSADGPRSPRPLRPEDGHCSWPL
Method: The IgG samples were titrated in three-fold serial dilutions starting at 500 nM to 0.98 nM. Binding of IgGs was detected with a mouse anti-human IgG conjugated to FITC. Results were analyzed by examining the Mean Fluorescence Intensity (MFI) of 10000 cells per sample in the BL-1 channel detector of a flow cytometer (Attune™ NxT Acoustic Focusing Cytometer, Invitrogen/ThermoFisher Scientific).
Antibodies to PD1 were analysed for concentration-dependent binding at the cell surface via flow cytometry. Initial analyses were performed on CHO cells stably-transfected with human or cyno PD1.

B1: Hu317 humanized anti-PD1 antibody, IgG1null format (antibody, V domains shown)
VH: QVQLQESGPGLVKPSETLSLTCTVSGFSLTSYGVHWIRQPPGKGLEWIGVIYADGSTNYNPSLKSRVTISKDTSKNQVSLKLSSVTAADTAVYYCARAYGNYWYIDVWGQGTTVTVSS
VL: DIVMTQSPDSLAVSLGERATINCKSSESVSNDVAWYQQKPGQPPKLLINYAFHRFTGVPDRFSGSGYGTDFTLTISSLQAEDVAVYYCHQAYSSPYTFGQGTKLEIK
notes: Tested as IgG1null (human IgG1 L234A, L235A, G237A) with human Ckappa; also called hu317 IgG1
binding result [1]: no binding (tested: 2 ug/ml) | binding result [2]: no binding (tested: 2 ug/ml) | binding result [3]: no binding (tested: 2 ug/ml) | fold fluorescence change versus mock (ZSgreen only) cells [4]: 1.2 fold | fold fluorescence change versus mock (ZSgreen only) cells [5]: 1.5 fold | fold fluorescence change versus mock (ZSgreen only) cells [6]: 1.4 fold | binding result [7]: binds | binding result [8]: binds
